Numbering of substitutions follows the chain as printed. Names may count otherwise.
B1: A162L + V305M + F360M (protein)
chain: MLDSLIVGAGISGLSAAHTLQKQQTQFLVTESQGRVGGNITTNRQGDYLWEEGPNSFAPTEDLLRLAVEVGLKEDLVFADRRLPRFVYWNQQLHPVPMSPPAALKTQLLSEAGKWRAALGALGFVGGLVGREEETVRQFFTRHLGTEVTERLVAPFVSGVYLGDVDQLSAQAAFRRVFEFAQLGGGLAAGGILARRQAPPKAPPDPSLPETKTGQLGSFREGLEMLPRAIASQLGDRLKLQWRLTHLEITPQQTYLAHFNTPDGPQQIATRTLILTTPAPITADLLKPLTPALHGVLKEIYYPPMACVVLAYPRAASARPLEGFGHLIPRNQGIRTLGTIWSSCLFPGRTPEGEHLLTNMIGGATDPGIAQLDPEEIAQAVHQDLCKILIRPEFTPKILAVRLWKQAIPQYTLGHLQRLATLEQELSKFPGLHILANYTDGVALGDCVKRGVAVAQKIRSRE
modifications: Synthetic (Protoporphyrinogen IX oxidase (CyPPO16) of Spirulina subsalsa)
B2: A162C + V305M + L327T + F360M (protein)
chain: B1 chain with L162C, L327T
modifications: Synthetic (Protoporphyrinogen IX oxidase (CyPPO16) of Spirulina subsalsa)
B3: V305M + L327T + F360M (protein)
chain: B1 chain with L162A, L327T
modifications: Synthetic (Protoporphyrinogen IX oxidase (CyPPO16) of Spirulina subsalsa)
B4: R85A + V160C + A162L + V305M + F360M (protein)
chain: B1 chain with R85A, V160C
modifications: Synthetic (Protoporphyrinogen IX oxidase (CyPPO16) of Spirulina subsalsa)
B5: V160C + A162C + V305M + L327T + F360M (protein)
chain: B1 chain with V160C, L162C, L327T
modifications: Synthetic (Protoporphyrinogen IX oxidase (CyPPO16) of Spirulina subsalsa)
B6: R85A + V160C + A162C + V305M + L327T + F360M: CyPPO16 variant (protein)
chain: B1 chain with R85A, V160C, L162C, L327T
modifications: Synthetic (Protoporphyrinogen IX oxidase (CyPPO16) of Spirulina subsalsa)
notes: CyPPO16 variant
B7: F360T: CyPPO16 variant (protein)
chain: B1 chain with L162A, M305V, M360T
modifications: Synthetic (Protoporphyrinogen IX oxidase (CyPPO16) of Spirulina subsalsa)
notes: CyPPO16 variant
B8: F324V: CyPPO16 variant (protein)
chain: B1 chain with L162A, M305V, F324V, M360F
modifications: Synthetic (Protoporphyrinogen IX oxidase (CyPPO16) of Spirulina subsalsa)
notes: CyPPO16 variant
B9: L327T: CyPPO16 variant (protein)
chain: B1 chain with L162A, M305V, L327T, M360F
modifications: Synthetic (Protoporphyrinogen IX oxidase (CyPPO16) of Spirulina subsalsa)
notes: CyPPO16 variant
B10: F360M: CyPPO16 variant (protein)
chain: B1 chain with L162A, M305V
modifications: Synthetic (Protoporphyrinogen IX oxidase (CyPPO16) of Spirulina subsalsa)
notes: CyPPO16 variant
B11: V305M: CyPPO16 variant (protein)
chain: B1 chain with L162A, M360F
modifications: Synthetic (Protoporphyrinogen IX oxidase (CyPPO16) of Spirulina subsalsa)
notes: CyPPO16 variant
B12: F360V: CyPPO16 variant (protein)
chain: B1 chain with L162A, M305V, M360V
modifications: Synthetic (Protoporphyrinogen IX oxidase (CyPPO16) of Spirulina subsalsa)
notes: CyPPO16 variant
B13: R85A: CyPPO16 variant (protein)
chain: B1 chain with R85A, L162A, M305V, M360F
modifications: Synthetic (Protoporphyrinogen IX oxidase (CyPPO16) of Spirulina subsalsa)
notes: CyPPO16 variant

What follows are molecules tested on CyPPO16 (assay: Herbicide tolerance test of CyPPO16 wild type and variants in PPO-deficient E. coli BT3(ΔPPO)). Settings: BT3(ΔPPO) transformants, two or more amino acid mutations; dark, 37° C., 16 to 20 hours; relative to wild type at highest concentration (50, 200 μM).
Assay type: cell-based, Spirulina subsalsa
Procedure: The mutated CyPPO gene obtained from the Example 2 was transformed to BT3 (ΔPPO) strain which is deficient of PPO activity and cultured in LB media with PPO-inhibiting herbicide, thereby examining whether growth of transformed BT3 was not inhibited.
BT3 competent cells were transformed with the pET303-CyPPO16 and pET303-CyPPO17 plasmids and those with a mutation(s) constructed in Example 2 respectively, and were cultured in LB agar media containing carbenicillin (Gold Biotechnology, Co., Ltd.).
Single colony of E. coli transformed with each CyPPO gene was cultured in 3 ml of LB broth containing carbenicillin overnight, and then was subcultured until absorbance (0D600) reached 0.5 to 1. Then, it was diluted with LB broth to OD600=0.5. Again, the diluted solution was serially diluted 4 times by a factor of one tenth.
The LB agar media (LB 25 g/l, Bacto agar 15 g/l) containing carbenicillin (100 μg/ml) and 0 to 4,000 μM of various herbicides dissolved in DMSO was prepared. Next, 10 μl of each diluted solution was dropped on the plate and cultured at 37° C. under light (Tables 7 and 9, FIGS. 2 to 6, and 18 to 22) or dark (Tables 8 and 10, FIGS. 7 to 17, and 23 to 33) for 16 to 20 hours. Then, extent of tolerance was evaluated.
The extent of herbicide tolerance of the mutated genes was evaluated by comparing that of mutated genes with that of wild type. The relative tolerance was represented with “+” as a factor of 10 times. Evaluation result was listed in Tables 7 to10 and FIGS. 2 to 33:
In Tables 7 to 10, tolerance level was presented as of tolerance of wild type and of variants equivalent to that of wild type, and was done as ‘+’ per each 10 fold resistance until ‘+++++’ as maximal resistance. (Tolerance level was evaluated by relative growth level of variants to that of wild type in the media containing highest concentration of herbicide; ‘+’=1-9 fold higher tolerance, ‘++’=10-99 fold higher tolerance, ‘+++’=100-999 fold higher tolerance, ‘++++’=1,000-9,999 fold higher tolerance, ‘+++++’=more than 10,000 fold higher tolerance)
The concentrations of herbicides were written above the photographs of tolerance test. A dilution series (0D600=0.5, 0.05, 0.005, 0.0005, 0.00005) was made and spotted on LB agar plates supplemented with herbicides.

Molecule | Herbicide tolerance, tiafenacil
B1 | +++++ (‘+++++’=more than 10,000 fold higher tolerance)
B2 | +++++ (‘+++++’=more than 10,000 fold higher tolerance)
B3 | +++++ (‘+++++’=more than 10,000 fold higher tolerance)
B4 | +++++ (‘+++++’=more than 10,000 fold higher tolerance)
B5 | +++++ (‘+++++’=more than 10,000 fold higher tolerance)

Same assay, conditions: BT3(ΔPPO) transformants, two or more amino acid mutations; dark; relative to wild type at highest concentration (25, 50 μM)

Molecule | Herbicide tolerance, flumioxazin
B1 | +++++ (‘+++++’=more than 10,000 fold higher tolerance)
B2 | +++++ (‘+++++’=more than 10,000 fold higher tolerance)
B3 | +++++ (‘+++++’=more than 10,000 fold higher tolerance)
B4 | +++++ (‘+++++’=more than 10,000 fold higher tolerance)
B5 | +++++ (‘+++++’=more than 10,000 fold higher tolerance)

Same assay, conditions: BT3(ΔPPO) transformants, two or more amino acid mutations; dark; relative to wild type at highest concentration (2000, 4000 μM)

Molecule | Herbicide tolerance, sulfentrazone
B1 | ++++ (‘++++’=1,000-9,999 fold higher tolerance)
B2 | ++++ (‘++++’=1,000-9,999 fold higher tolerance)
B3 | ++++ (‘++++’=1,000-9,999 fold higher tolerance)
B4 | +++++ (‘+++++’=more than 10,000 fold higher tolerance)
B5 | +++++ (‘+++++’=more than 10,000 fold higher tolerance)

These molecules were tested on CyPPO16 (assay: PPO enzyme activity of MBP-fused CyPPO16 wild type and variants). Settings: PPO enzyme activity relative to wild type; MBP-fused protein, 50 μM protoporphyrinogen IX, room temperature, 30 min.
Assay type: biochemical, Spirulina subsalsa
Procedure: Thus, PPO proteins of wild type and variants were expressed as fused to MBP and were used for experiments.
The following process for purification of PPO protein was performed in a 4° C. cold room. Amylose resin (NEB) was packed to 1.5×15 cm column (Bio-Rad, Econo Columns 1.5×15 cm, glass chromatography column, max. vol), and the obtained protein extracts were loaded to the column at a flow rate of 0.2 ml/min. The column was washed with 3 column volumes of buffer and the presence of protein in the washing solution was examined. When the protein was no longer detected, the washing procedure was terminated. Then, the MBP-PPO protein was eluted with approximately 2 column volumes of buffer containing 20 mM maltose. The protein concentration of each eluent was determined and the elution was stopped when the protein was no longer detected. Ten microliter of each fraction was investigated for protein quantification and SDS-PAGE analysis. The highly pure fractions of PPO protein variants were used for the enzyme assay.
Since protoporphyrinogen IX, a substrate of PPO protein, was not commercially available, it was chemically synthesized in the laboratory. Overall process was performed in dark under nitrogen stream. […] of protoporphyrin IX was dissolved in 20 ml of 20% (v/v) EtOH, and stirred under dark condition for 30 minutes. The obtained protoporphyrin IX solution was put into a 15 ml screw tube in an amount of 800 μl, and flushed with nitrogen gas for 5 minutes. To this, 1.5 g of sodium amalgam was added and vigorously shaken for 2 minutes. The lid was opened to exhaust hydrogen gas in the tube. Thereafter, the lid was closed and incubated for 3 minutes. The protoporphyrinogen IX solution was filtered using syringe and cellulose membrane filter. […] To determine the enzyme activity of PPO protein, a reaction mixture was prepared with the following composition (based on 10 ml): 50 mM Tris-Cl (pH 8.0); 50 mM NaCl; 0.04% (v/v) Tween 20; 40 mM glucose (0.072 g); 5 units glucose oxidase (16.6 mg); and 10 units catalase (1 μl).
Hundred and eighty microliters of a reaction mixture containing the purified PPO protein were placed in 96 well plates and 20 μl of […] were added. […] The reaction proceeded at room temperature for 30 min and the fluorescence of protoporphyrin IX was measured using Microplate reader (Sense, Hidex) (excitation: 405 nm; emission: 633 nm). […] To this, 2.7 N HCl was added, and the absorbance at 408 nm was measured. A standard curve was generated using standard protoporphyrin IX, and PPO activity was measured by calibration of protoporphyrin IX using the standard curve of protoporphyrin IX.
Activities of variants were presented relatively compared to that of wild type.

Molecule | Activity (%)
B6 | 13
B7 | 25
B8 | 23
B9 | 68
B10 | 83
B11 | 72
B12 | 69
B13 | 94

Source: US11219221B2 (FarmHannong Co., Ltd., priority 2017, dated 2022)
